Test in all cases: MST; MST: 20 mM PBS pH 7.5, 300 mM NaCl, 0.05% Tween 20, 25 C, 50 nM RNA; EMSA: 20 mM Tris-HCl pH 7.5, 300 mM NaCl, 5 mM b-mercaptoethanol, 20% glycerol, agarose gel in Tris-glycine pH 8.0 (8.5 for FAM-RNA), 4 C
In general terms: In EMSA bound probe runs differently from free probe, usually more slowly.

Data set [1] addresses T1, KAE1;BUD32 K55E;CGI121;PCC1 (Arabidopsis thaliana;Arabidopsis …, UniProt O49653;Q94K14;Q6NMZ4;Q8GWD7 1-353;1-226;1-172;1-96, |K55E||).
T1 sequence 1: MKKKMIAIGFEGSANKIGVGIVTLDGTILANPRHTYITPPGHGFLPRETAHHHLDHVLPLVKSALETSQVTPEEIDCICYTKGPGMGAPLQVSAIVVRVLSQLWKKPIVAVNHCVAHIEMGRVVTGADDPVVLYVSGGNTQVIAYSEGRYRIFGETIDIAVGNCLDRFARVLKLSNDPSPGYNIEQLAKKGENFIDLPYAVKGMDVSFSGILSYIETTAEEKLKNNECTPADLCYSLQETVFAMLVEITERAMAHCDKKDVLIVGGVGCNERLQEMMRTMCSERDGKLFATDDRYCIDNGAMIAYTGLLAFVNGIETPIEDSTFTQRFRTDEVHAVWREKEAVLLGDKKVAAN
T1 sequence 2: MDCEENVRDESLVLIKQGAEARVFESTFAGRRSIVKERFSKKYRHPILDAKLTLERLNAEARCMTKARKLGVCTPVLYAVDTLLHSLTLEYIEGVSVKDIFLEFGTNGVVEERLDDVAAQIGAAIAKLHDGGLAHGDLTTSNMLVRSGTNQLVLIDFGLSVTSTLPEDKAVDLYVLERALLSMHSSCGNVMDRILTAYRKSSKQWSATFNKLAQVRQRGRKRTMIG
T1 sequence 3: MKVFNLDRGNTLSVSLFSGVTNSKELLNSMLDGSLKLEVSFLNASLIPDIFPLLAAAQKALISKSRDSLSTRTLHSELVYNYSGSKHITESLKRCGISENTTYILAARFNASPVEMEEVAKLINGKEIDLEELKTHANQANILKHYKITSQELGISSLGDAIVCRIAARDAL
T1 sequence 4: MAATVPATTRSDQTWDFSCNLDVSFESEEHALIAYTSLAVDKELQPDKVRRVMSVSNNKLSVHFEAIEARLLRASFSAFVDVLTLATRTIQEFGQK
The note with it: protein: recombinant;recombinant;recombinant;recombinant; tags: none (6His on partner PCC1);;6His (C-term);6His (C-term); chain copies: 2;2;2;2; label: 5' 6-FAM; tRNA cloverleaf.

Data set [2] addresses T2, KAE1;BUD32 K51E;CGI121;PCC1 (Arabidopsis thaliana;Arabidopsis …, UniProt O49653;Q94K14;Q6NMZ4;Q8GWD7 1-353;1-226;1-172;1-96, |K51E||).
T2 sequence 1: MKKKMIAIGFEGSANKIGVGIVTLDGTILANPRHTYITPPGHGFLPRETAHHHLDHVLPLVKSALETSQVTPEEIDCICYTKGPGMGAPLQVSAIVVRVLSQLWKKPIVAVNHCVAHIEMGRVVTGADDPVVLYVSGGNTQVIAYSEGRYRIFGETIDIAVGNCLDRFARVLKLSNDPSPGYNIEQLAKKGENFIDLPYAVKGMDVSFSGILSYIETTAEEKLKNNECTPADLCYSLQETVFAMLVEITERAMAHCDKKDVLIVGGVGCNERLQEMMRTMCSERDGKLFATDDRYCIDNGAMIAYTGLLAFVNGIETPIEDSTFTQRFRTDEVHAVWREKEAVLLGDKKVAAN
T2 sequence 2: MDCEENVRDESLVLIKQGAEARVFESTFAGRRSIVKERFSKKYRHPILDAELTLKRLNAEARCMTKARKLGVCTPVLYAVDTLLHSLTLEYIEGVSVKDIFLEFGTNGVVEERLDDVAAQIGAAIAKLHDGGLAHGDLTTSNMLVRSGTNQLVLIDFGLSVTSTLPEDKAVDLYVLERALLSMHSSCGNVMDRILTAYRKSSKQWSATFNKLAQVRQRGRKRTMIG
T2 sequence 3: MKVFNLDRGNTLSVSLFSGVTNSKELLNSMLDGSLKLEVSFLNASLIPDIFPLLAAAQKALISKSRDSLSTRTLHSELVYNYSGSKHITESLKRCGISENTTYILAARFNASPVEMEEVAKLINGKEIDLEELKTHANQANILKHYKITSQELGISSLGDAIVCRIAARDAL
T2 sequence 4: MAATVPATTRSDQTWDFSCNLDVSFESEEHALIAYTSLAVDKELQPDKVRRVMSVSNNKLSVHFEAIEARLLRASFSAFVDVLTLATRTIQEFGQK
The note with it: protein: recombinant;recombinant;recombinant;recombinant; tags: none (6His on partner PCC1);;6His (C-term);6His (C-term); chain copies: 2;2;2;2; label: 5' 6-FAM; tRNA cloverleaf.

In data set [3] the target is T3, KAE1 mutant-1;BUD32;CGI121;PCC1 (Arabidopsis thaliana;Arabidopsis …, UniProt O49653;Q94K14;Q6NMZ4;Q8GWD7 1-353;1-226;1-172;1-96, Y36R;I37K;T38R;P39R;P40R;G41W;H42D|||).
T3 sequence 1: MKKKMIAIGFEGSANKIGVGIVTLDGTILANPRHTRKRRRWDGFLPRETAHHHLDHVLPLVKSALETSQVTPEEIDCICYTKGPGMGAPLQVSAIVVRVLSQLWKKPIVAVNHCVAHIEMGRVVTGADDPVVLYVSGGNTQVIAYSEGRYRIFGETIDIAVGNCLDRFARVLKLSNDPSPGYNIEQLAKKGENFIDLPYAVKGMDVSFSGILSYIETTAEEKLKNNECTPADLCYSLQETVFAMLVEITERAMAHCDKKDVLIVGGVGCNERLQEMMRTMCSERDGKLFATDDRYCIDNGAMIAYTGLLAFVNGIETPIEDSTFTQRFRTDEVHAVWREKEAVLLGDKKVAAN
T3 sequence 2: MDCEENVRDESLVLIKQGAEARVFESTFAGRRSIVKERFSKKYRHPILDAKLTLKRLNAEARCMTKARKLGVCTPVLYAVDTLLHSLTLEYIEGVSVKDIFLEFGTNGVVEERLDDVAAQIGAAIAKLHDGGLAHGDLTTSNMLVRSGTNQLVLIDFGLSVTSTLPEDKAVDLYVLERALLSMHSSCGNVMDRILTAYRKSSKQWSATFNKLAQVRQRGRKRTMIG
T3 sequence 3: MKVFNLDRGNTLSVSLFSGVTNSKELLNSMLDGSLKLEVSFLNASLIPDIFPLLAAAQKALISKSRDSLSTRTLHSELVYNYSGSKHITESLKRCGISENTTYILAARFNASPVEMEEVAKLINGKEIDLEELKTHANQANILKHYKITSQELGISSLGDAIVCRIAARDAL
T3 sequence 4: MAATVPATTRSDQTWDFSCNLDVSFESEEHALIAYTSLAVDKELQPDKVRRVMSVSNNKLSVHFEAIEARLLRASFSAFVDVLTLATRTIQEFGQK
The note with it: protein: recombinant;recombinant;recombinant;recombinant; tags: ;none (6His on partner CGI121);6His (C-term);6His (C-term); chain copies: 2;2;2;2; label: 5' 6-FAM; tRNA cloverleaf.

Data set [4] has as its target T4, KAE1;BUD32 S163R;CGI121;PCC1 (Arabidopsis thaliana;Arabidopsis …, UniProt O49653;Q94K14;Q6NMZ4;Q8GWD7 1-353;1-226;1-172;1-96, |S163R||).
T4 sequence 1: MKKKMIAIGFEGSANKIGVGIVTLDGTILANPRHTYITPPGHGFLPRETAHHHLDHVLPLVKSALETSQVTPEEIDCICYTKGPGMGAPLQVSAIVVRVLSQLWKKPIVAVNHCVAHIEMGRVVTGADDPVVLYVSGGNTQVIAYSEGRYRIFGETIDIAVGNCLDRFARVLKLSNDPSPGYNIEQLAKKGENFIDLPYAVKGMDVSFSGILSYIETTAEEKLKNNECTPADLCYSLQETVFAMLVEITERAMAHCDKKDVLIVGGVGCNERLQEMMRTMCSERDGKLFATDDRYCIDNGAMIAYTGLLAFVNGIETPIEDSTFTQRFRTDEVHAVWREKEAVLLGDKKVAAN
T4 sequence 2: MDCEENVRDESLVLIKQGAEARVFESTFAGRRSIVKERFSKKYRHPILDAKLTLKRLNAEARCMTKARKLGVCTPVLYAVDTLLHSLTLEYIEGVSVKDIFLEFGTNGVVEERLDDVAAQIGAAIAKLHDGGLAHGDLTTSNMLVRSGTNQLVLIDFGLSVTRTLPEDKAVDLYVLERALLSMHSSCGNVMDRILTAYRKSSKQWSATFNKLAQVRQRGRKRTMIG
T4 sequence 3: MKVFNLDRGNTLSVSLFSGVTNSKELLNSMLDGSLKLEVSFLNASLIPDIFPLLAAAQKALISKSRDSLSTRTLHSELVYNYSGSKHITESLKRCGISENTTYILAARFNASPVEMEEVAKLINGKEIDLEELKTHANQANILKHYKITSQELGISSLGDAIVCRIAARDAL
T4 sequence 4: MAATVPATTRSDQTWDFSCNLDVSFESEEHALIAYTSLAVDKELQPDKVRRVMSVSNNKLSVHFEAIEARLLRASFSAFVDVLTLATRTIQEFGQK
The note with it: protein: recombinant;recombinant;recombinant;recombinant; tags: none (6His on partner PCC1);;6His (C-term);6His (C-term); chain copies: 2;2;2;2; label: 5' 6-FAM; tRNA cloverleaf.

B1: 5'-6FAM-tRNAArgCCU (structured_RNA)
RNA: GCGCCUGUAGCUCAGUGGAUAGAGCGUCUGUUUCCUAAGCAGAAGGUCGUAGGUUCGACCCCUACCUGGCGCGCCA
As for B1, the Kd – broadly, the constant that tells how readily two partners part at equilibrium – was 104 ± 15.2 µM in data set [1], 29.8 ± 10.7 µM in data set [2], 5.27 ± 1.2 µM in data set [3] and 330 ± 11.1 µM in data set [4].
